Molecular target: T1, tau (rat, UniProt P19332-5 2-432, limits assumed)
T1 construct: Cytoskeletal protein used as a specificity control in the cypin immunoprecipitates
Assay: immunoprecipitation from rat brain extract with polyclonal anti-cypin antibody
Method: Cypin contains a region of homology to CRMP that binds directly to tubulin heterodimers (Akum et al., Nature Neurosci. 7:145 (2004)). To establish that cypin binds to tubulin, affinity chromatography was performed using a GST fusion of rat cypin immobilized on glutathione beads incubated with rat brain extract. The eluate was then assayed for the presence of tubulin. […] To assess whether this interaction occurs in vivo, rat brain extract was subjected to immunoprecipitation with preimmune serum or polyclonal antibody raised against cypin. Tubulin was found in the cypin immunoprecipitates (Id.). Very little tubulin was present when preimmune serum is used, representing nonspecific binding (Id.). Furthermore, no tau was detected in the cypin immunoprecipitates, supporting the idea that cypin binds specifically to tubulin and not all cytoskeletal proteins (Id.). In addition, cypin was found in tubulin immunoprecipitates.

T1 sequence (P19332 other isoform, or with tags, fused parts or gaps limits assumed): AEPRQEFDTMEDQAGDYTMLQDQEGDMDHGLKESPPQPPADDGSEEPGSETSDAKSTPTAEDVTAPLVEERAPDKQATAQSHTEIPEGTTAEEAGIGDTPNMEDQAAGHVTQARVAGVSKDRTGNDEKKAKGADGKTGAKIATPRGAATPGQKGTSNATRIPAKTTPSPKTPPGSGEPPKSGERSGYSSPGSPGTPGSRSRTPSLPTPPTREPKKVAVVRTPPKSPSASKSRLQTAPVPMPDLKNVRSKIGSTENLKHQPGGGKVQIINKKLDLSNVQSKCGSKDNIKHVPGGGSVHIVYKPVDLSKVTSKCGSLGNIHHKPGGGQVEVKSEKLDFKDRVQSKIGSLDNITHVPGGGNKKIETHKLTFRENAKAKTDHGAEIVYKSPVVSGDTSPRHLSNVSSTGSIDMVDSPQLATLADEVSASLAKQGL

binding result: no binding
B1: cypin in rat brain extract (enzyme)
chain: MCAARTPQLALIFRGTFVHSTWTCPMEVLRDHLLGVSDSGKIVFLEESSQQEKLAKEWCFKPCEIRELSHHEFFMPGLVDTHIHAPQYAFAGSNVDLPLLDWLNKYTFPTEKRFQSTDVAEEVYTRVVRRTLKNGTTTACYFGTIHTDSSLILAEITDKFGQRAFVGKVCMDLNNTVPEYKETTEESVKETERFVSEMLQKNYSRVKPIVTPRFSLSCTETLMSELGNIAKTHDLYIQSHISENREEIEAVKSLYPGYKNYTDVYDKNNLLTNKTVMAHGCYLSEEELNVFSERGASIAHCPNSNLSLSSGLLNVLDVLKHKVKIGLGTDVAGGYSYSMLDAIRRAVMVSNVLLINKVNEKSLTLKEVFRLATLGGSQALGLDREIGNFEVGKDFDALLINPRASDSPIDLFCGDFVGDISEAVIQKFLYLGDDRNIEEVYVGGKQVVPFSSSV
notes: Endogenous cypin immunoprecipitated from rat brain extract with a polyclonal antibody raised against cypin; also called endogenous cypin
